The values below come from patent US20230151111A1.

“And” between values parts separate entries of the source, which are not always exact repeats. Equal values may be shown once.

For assay [1], the target named is human PD-1-mFc-biotin (human) (UniProt Q15116). Nature of the assay: competitive ELISA, competitor coated PD-L1-mFc; antibody 5 ug/mL diluted 1:729. Background: ELISA stands for enzyme-linked immunosorbent assay.
The target in assay [2] is PD-1-mFc (human) (UniProt Q15116). Put plainly: ELISA, PD-1-mFc coated; antibody 1 ug/mL.
In assay [3] the target is human PD-1-mFc-biotin (human) (UniProt Q15116). Put plainly: competitive ELISA, competitor coated PD-L1-mFc; antibody 5 ug/mL diluted 1:81.
For assay [4], the target named is PD-1-mFc (human) (UniProt Q15116). Put plainly: ELISA, PD-1-mFc coated; antibody 1 ug/mL diluted 1:81.
The target is the same in assay [5]. Put plainly: ELISA, PD-1-mFc coated; antibody 1 ug/mL diluted 1:729.
The target of assay [6] is human PD-1-mFc-biotin (human) (UniProt Q15116). Put plainly: competitive ELISA, competitor coated PD-L1-mFc; antibody 5 ug/mL diluted 1:9.
The target is the same in assay [7]. Put plainly: competitive ELISA, competitor coated PD-L1-mFc; antibody 5 ug/mL.
For assay [8], the target named is PD-1-mFc (human) (UniProt Q15116). Nature of the assay: ELISA, PD-1-mFc coated; antibody 1 ug/mL diluted 1:3.
Assay [9] deals with human PD-1-mFc-biotin (human) (UniProt Q15116). Nature of the assay: competitive ELISA, blocking of PD-1-mFc-biotin binding to coated PD-L1-mFc.
Assay [10] has the same target. Nature of the assay: competitive ELISA, competitor coated PD-L1-mFc; antibody 5 ug/mL diluted 1:27.
The target of assay [11] is PD-1-mFc (human) (UniProt Q15116). Nature of the assay: ELISA, PD-1-mFc coated; antibody 1 ug/mL diluted 1:27.
Assay [12] has as its target human PD-1-mFc-biotin (human) (UniProt Q15116). Put plainly: competitive ELISA, competitor coated PD-L1-mFc; antibody 5 ug/mL diluted 1:243.
For assay [13] the target is unchanged. Put plainly: competitive ELISA, competitor coated PD-L1-mFc; antibody 5 ug/mL diluted 1:3.
In assay [14] the target is PD-1-mFc (human) (UniProt Q15116). Nature of the assay: ELISA, PD-1-mFc coated; antibody 1 ug/mL diluted 1:243.
Assay [15] shares this target. Put plainly: ELISA, PD-1-mFc coated; antibody 1 ug/mL diluted 1:9.
Assay [16] has as its target human NT5E-Biotin (human) (UniProt P21589). Nature of the assay: ELISA, NT5E-biotin on streptavidin; antibody 0.333 ug/mL diluted 1:3.
Assay [17] has the same target. Put plainly: ELISA, NT5E-biotin on streptavidin; antibody 0.333 ug/mL diluted 1:9.
The target is the same in assay [18]. Nature of the assay: ELISA, NT5E-biotin on streptavidin; antibody 0.333 ug/mL diluted 1:27.
For assay [19] the target is unchanged. Put plainly: ELISA, NT5E-biotin on streptavidin; antibody 0.333 ug/mL.
For assay [20] the target is unchanged. Put plainly: ELISA, NT5E-biotin on streptavidin; antibody 0.333 ug/mL diluted 1:243.
For assay [21] the target is unchanged. Nature of the assay: ELISA, NT5E-biotin on streptavidin.
Assay [22] has as its target human NT5E(1-552)-his (human) (UniProt P21589). Put plainly: BLI (Fortebio), antibody on Protein A sensor, NT5E(1-552)-his 3.125-200 nM, 37 C. Background: In BLI a coated tip is dipped into the sample, and binding shifts an interference pattern.
Assay [23] concerns the target human NT5E-Biotin (human) (UniProt P21589). Put plainly: ELISA, NT5E-biotin on streptavidin; antibody 0.333 ug/mL diluted 1:729.
Assay [24] has the same target. Put plainly: ELISA, NT5E-biotin on streptavidin; antibody 0.333 ug/mL diluted 1:81.

human PD-1-mFc-biotin (human), sequence (Q15116 other isoform, or with tags, fused parts or gaps limits assumed): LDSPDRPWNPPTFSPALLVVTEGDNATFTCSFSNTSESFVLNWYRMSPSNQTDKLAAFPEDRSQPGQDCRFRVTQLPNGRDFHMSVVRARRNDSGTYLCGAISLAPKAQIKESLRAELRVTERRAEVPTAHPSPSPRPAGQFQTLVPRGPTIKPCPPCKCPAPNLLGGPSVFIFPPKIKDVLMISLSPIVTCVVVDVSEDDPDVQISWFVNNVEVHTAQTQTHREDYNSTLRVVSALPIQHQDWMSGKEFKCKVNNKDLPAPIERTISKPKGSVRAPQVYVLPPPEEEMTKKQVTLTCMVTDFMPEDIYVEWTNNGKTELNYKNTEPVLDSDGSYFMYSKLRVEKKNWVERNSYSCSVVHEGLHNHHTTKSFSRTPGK
PD-1-mFc (human), sequence (Q15116 other isoform, or with tags, fused parts or gaps limits assumed): as above
human NT5E(1-552)-his (human), sequence (P21589 27-552 limits assumed): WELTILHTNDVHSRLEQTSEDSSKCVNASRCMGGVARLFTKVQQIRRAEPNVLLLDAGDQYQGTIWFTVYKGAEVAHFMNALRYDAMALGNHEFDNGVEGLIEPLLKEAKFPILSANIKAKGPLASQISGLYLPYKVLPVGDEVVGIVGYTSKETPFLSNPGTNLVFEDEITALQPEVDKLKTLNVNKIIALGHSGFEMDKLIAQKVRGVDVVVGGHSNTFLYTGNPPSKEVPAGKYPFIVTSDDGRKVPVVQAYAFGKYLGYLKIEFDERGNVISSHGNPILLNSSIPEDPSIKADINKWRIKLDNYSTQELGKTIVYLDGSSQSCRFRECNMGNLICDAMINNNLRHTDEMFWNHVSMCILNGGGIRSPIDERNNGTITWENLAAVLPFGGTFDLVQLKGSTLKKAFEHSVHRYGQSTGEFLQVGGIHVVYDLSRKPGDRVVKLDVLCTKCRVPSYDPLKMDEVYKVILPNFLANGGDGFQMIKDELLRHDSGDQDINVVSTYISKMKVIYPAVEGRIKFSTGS
human NT5E-Biotin (human), sequence (P21589 27-552 limits assumed, form in doubt): as the sequence (P21589 27-552 limits assumed) above

Broadly, the EC50 is the concentration needed to bring the measured effect to its halfway point. Read a low EC50 as a more potent agent. Consider nivolumab (antibody), for which the OD450 is 1.35 OD and 1.28 OD in assay [1]; 2.39 OD and 2.47 OD with PD-1-mFc (human) [2]; 1.24 OD and 1.15 OD in assay [3]; 1.71 OD with PD-1-mFc (human) [4]; 0.521 OD and 0.498 OD with PD-1-mFc (human) [5]; 0.107 OD and 0.1 OD in assay [6]. The OD450 was 0.057 OD in assay [7]; 2.44 OD in the assay with PD-1-mFc (human) [8]; 1.01 OD and 0.875 OD in [10]; 2.2 OD and 2.22 OD in the assay with PD-1-mFc (human) [11]; 1.39 OD and 1.21 OD in assay [12]; 0.075 OD and 0.076 OD in assay [13]. Moreover, the OD450 is 0.98 OD in the assay with PD-1-mFc (human) [14]; 2.52 OD and 2.57 OD in the assay with PD-1-mFc (human) [15]. For the same substance, the EC50 in assay [9] was determined as 1700 pM.

Broadly, the Kd is the constant that tells how readily two partners part at equilibrium. In general, koff refers to a measure of how fast the partners let go of each other. Read a high koff as fast dissociation. As usually defined, the kon is the second-order rate constant of association. On to MEDI9447 (antibody), for which the OD450 is 2.43 OD and 2.53 OD in assay [16]; 2.22 OD and 2.35 OD in assay [17]; 1.73 OD and 1.81 OD in assay [18]; 2.46 OD and 2.57 OD in assay [19]; 0.547 OD and 0.587 OD in [20]; 0.288 OD and 0.305 OD in assay [23]. Further, the OD450 in [24] is 1.09 OD and 1.17 OD. In addition, the EC50 in [21] stood at 42 pM. Further, in [22], the Kd was 104 pM. The same substance returned a koff in assay [22] of 2.44e-05 s⁻¹. The kon in assay [22] is 234000 M⁻¹ s⁻¹.
